According to patent US7211422B2, “Polypeptide having α-isomaltosylglucosaccharide synthase activity” (Kabushiki Kaisha Hayashibara Seibutsu Kagaku Kenkyujo, priority 2001, dated 2007):

What was measured:
[1] = Test on reducing-power formation; type: biochemical; settings: 1% (w/v) maltotetraose, 0.25 unit/g substrate, 35° C., pH 6.0 (pH 8.4 for A19)
Method: The following test was carried out to study whether the polypeptide having α-isomaltosylglucosaccharide-forming enzyme activity had the ability of forming reducing-power or not. To a 1% (w/v) aqueous solution of maltotetraose as a substrate was added 0.25 unit/g substrate, d.s.b., of either of purified polypeptide specimen of α-isomaltosylglucosaccharide-forming enzyme from Bacillus globisporus C11 obtained by the method in Experiment 1-3, Bacillus globisporus N75 obtained by the method in Experiment2-3, or Arthrobacter globiformis A19 obtained by the method in Experiment 3-3, and incubated at 35° C. and at pH 6.0, except that pH 8.4 was used for the enzyme from Arthrobacter globiformis A19. During the reaction, a portion of each reaction mixture was sampled at prescribed time intervals and measured for reducing power after keeping at 100° C. for 10 minutes to stop the enzymatic reaction. Before and after the enzymatic reaction, the reducing sugar content and total sugar content were respectively quantified by the Somogyi-Nelson method and anthrone-sulfuric acid method. The percentage of forming reducing power was calculated by the following equation: Percentage of forming reducing power (%)=(AR/AT−BR/BT)×100 Equation: • AR: Reducing sugar content after enzymatic reaction. • AT: Total sugar content after enzymatic reaction. • BR: Reducing sugar content before enzymatic reaction. • BT: Total sugar content before enzymatic reaction.

[2] = Isoelectric point by isoelectrophoresis (2% ampholine gel); type: physicochemical; settings: gel containing 2% (w/v) ampholine
Text: Purified specimens of the polypeptide having α-isomaltosylglucosaccharide-forming enzyme activity from Bacillus globisporus C11 obtained by the method in Experiment 1-3, Bacillus globisporus N75 obtained by the method in Experiment 2–3, and Arthrobacter globiformis A19 obtained by the method in Experiment 3-3 were subjected to isoelectrophoresis using a gel containing 2% (w/v) ampholine commercialized by Amersham Biosciences K. K., Tokyo, Japan (old name, Amersham Pharmacia Biotech), and then measured pHs of protein bands and gel to determine their isoelectric points.

[3] = Effect of temperature and pH on α-isomaltosylglucosaccharide-forming enzyme activity; type: biochemical; settings: for Optimum temperature: pH 6.0 for 60 minutes; for Optimum pH: incubated at 35° C. for 60 minutes
Method: The two types of enzymatic activities described above were measured as following. The activity of α-isomaltosylglucosaccharide-forming enzyme was measured by the following assay: A substrate solution was prepared by dissolving maltotriose in 100 mM acetate buffer (pH 6.0) to give a concentration of 2% (w/v). A reaction mixture was prepared by mixing 0.5 ml of the substrate solution and 0.5 ml of an enzyme solution, and incubated at 35° C. for 60 minutes. After stopping the reaction by boiling for 10 minutes, the amount of maltose formed in the reaction mixture was determined by high-performance liquid chromatography (HPLC). One unit of α-isomaltosylglucosaccharide-forming activity was defined as the amount of the enzyme that forms one μmole of maltose per minute under the above conditions. HPLC was carried out using “SHODEX KS-801 column”, Showa Denko K. K., Tokyo, Japan, at a column temperature of 60° C. and a flow rate of 0.5 ml/minutes of water, and using “RI-8012”, a differential refractometer commercialized by Tosoh Corporation, Tokyo, Japan.
The effect of temperature and pH on the α-isomaltosylglucosaccharide-forming enzyme activity was examined in accordance with the assay for the α-isomaltosylglucosaccharide-forming enzyme activity under various temperature and pH conditions. The effect of temperature was conducted in the presence or absence of 1 mM Ca^2+. […] The optimum temperature of the polypeptide having α-isomaltosylglucosaccharide-forming enzyme activity from a strain C11 was about 45° C. (in the absence of Ca^2+) and about 50° C. (in the presence of Ca^2+) when incubated at pH 6.0 for 60 minutes, and the optimum pH was about 6.0 when incubated at 35° C. for 60 minutes. The optimum temperature of the polypeptide having α-isomaltosylglucosaccharide-forming enzyme activity from a strain N75 was about 50° C. (in the absence of Ca^2+) and about 55° C. (in the presence of Ca^2+) when incubated at pH 6.0 for 60 minutes, and the optimum pH was about 6.0 when incubated at 35° C. for 60 minutes. The optimum temperature of the polypeptide having α-isomaltosylglucosaccharide-forming enzyme activity from a strain A19 was about 60° C. (in the absence of Ca^2+) and about 65° C. (in the presence of Ca^2+) when incubated at pH 8.4 for 60 min, and the optimum pH was about 8.4 when incubated at 35° C. for 60 minutes.

[4] = Thermal stability and pH stability (residual enzyme activity); type: physicochemical; settings: 20 mM acetate buffer pH 6.0, 60 minutes
Method: The thermal stability of the polypeptide having α-isomaltosylglucosaccharide-forming enzyme activity was determined by incubating the testing polypeptide solution in 20 mM acetate buffer, pH6.0 (in the case of the polypeptide from a strain A19, 20 m M Glycine-NaOH buffer, pH 8.0) at prescribed temperatures for 60 minutes in the presence or absence of 1 mM Ca^2+, cooling with water the resulting polypeptide solutions, and assaying the residual enzyme activity of each solution. The pH stability of the polypeptide having α-isomaltosylglucosaccharide-forming enzyme activity was determined by keeping the testing polypeptide solutions in 50 mM buffer having prescribed pHs at 4° C. for 24 hours, adjusting the pH of each solution to 6.0 (in the case of the polypeptide from a strain A19, pH 8.0), and assaying the residual enzyme activity of each solution. […] The thermal stability of the polypeptide having α-isomaltosylglucosaccharide-forming enzyme activity from a strain C11 was up to about 40° C. (in the absence of Ca^2+) and about 45° C. (in the presence of Ca^2+), and pH stability of about 5.0 to about 10.0. The thermal stability of the polypeptide having α-isomaltosylglucosaccharide-forming enzyme activity from a strain N75 was up to about 45° C. (in the absence of Ca^2+) and about 50° C. (in the presence of Ca^2+), and pH stability of about 5.0 to about 9.0. The thermal stability of the polypeptide having α-isomaltosylglucosaccharide-forming enzyme activity from a strain A19 was up to about 55° C. (in the absence of Ca^2+) and about 60° C. (in the presence of Ca^2+), and pH stability of about 5.0 to about 9.0.

B1: Enzyme of Strain C11: purified polypeptide having α-isomaltosylglucosaccharide-forming enzyme activity from Bacillus globisporus C11 (Experiment 1-3); contains SEQ ID NO: 1 (protein)
chain: YVSSLGNLISSSVTGDTLTLTVDNGAEPSDDLLIVQAVQNGILKVDYRPNSITPSAKTPMLDPNKTWSAVGATINTTANPMTITTSNMKIEITKNPVRMTVKKADGTTLFWEPSGGGVFSDGVRFLHATGDNMYGIRSFNAFDSGGDLLRNSSNHAAHAGEQGDSGGPLIWSTAGYGLLVDSDGGYPYTDSTTGQMEFYYGGTPPEGRRYAKQNVEYYIMLGTPKEIMTDVGEITGKPPMLPKWSLGFMNFEWDTNQTEFTNNVDTYRAKNIPIDAYAFDYDWKKYGETNYGEFAWNTTNFPSASTTSLKSTMDAKGIKMIGITKPRIVTKDASANVTTQGTDATNGGYFYPGHNEYQDYFIPVTVRSIDPYNANERAWFWNHSTDALNKGIVGWWNDETDKVSSGGALYWFGNFTTGHMSQTMYEGGRAYTSGAQRVWQTARTFYPGAQRYATTLWSGDIGIQYNKGERINWAAGMQEQRAVMLSSVNNGQVKWGMDTGGFNQQDGTTNNPNPDLYARWMQFSALTPVFRVHGNNHQQRQPWYFGSTAEEASKEAIQLRYSLIPYMYAYERSAYENGNGLVRPLMQAYPTDAAVKNYTDAWMFGDWLLAAPVVDKQQTSKDIYLPSGSWIDYARGNAITGGQTIRYSVNPDTLTDMPLFIKKGAIIPTQKVQDYVGQASVTSVDVDVFPDTTQSSFTYYDDDGASYNYESGTYFKQNMTAQDNGSGSLSFTLGAKSGSYTPALQSYIVKLHGSAGTSVTNNSAAMTSYASLEALKAAAGEGWATGKDIYGDVTYVKVTAGTASSKSIAVTGVAAVSATTSQYEAEDASLSGNSVAAKASINTNHTGYTGTGFVDGLGNDGAGVTFYPKVKTGGDYNVSLRYANASGTAKSVSIFVNGKRVKSTSLANLANWDTWSTQSETLPLTAGVNVVTYKYYSDAGDTGNVNIDNITVPFAPIIGKYEAESAELSGGSSLNTNHWYYSGTAFVDGLSAVGAQVKYNVNVPSAGSYQVALRYANGSAATKTLSTYINGAKLGQTSFTSPGTNWNVWQDNVQTVTLNAGANTIAFKYDAADSGNINVDRLLLSTSAAGTPVSEQNLLDNPGFERDTSQTNNWIEWHPGTQAVAFGVDSGSTTNPPESPWSGDKRAYFFAAGAYQQSIHQTISVPVNNVKYKFEAWVRMKNTTPTTARAEIQNYGGSAIYANISNSGVWKYISVSDIMVTNGQIDVGFYVDSPGGTTLHIDDVRVTKQ
modifications: Bacillus globisporus C11
[1]; reaction time 0 hour
  Percentage of forming reducing power: 0.0%
[1]; reaction time 1 hour
  Percentage of forming reducing power: 0.1%
[1]; reaction time 2 hours
  Percentage of forming reducing power: 0.0%
[1]; reaction time 4 hours
  Percentage of forming reducing power: 0.1%
[1]; reaction time 8 hours
  Percentage of forming reducing power: 0.0%
[2]
  Isoelectric point: about 5.2±0.5
[3]; in the absence of Ca2+
  Optimum temperature: about 45 °C
[3]; in the presence of 1 mM Ca2+
  Optimum temperature: about 50 °C
[3]
  Optimum pH: about 6.0
[4]; in the absence of Ca2+
  Thermal stability: up to 40 °C

B2: Enzyme of Strain N75: purified polypeptide having α-isomaltosylglucosaccharide-forming enzyme activity from Bacillus globisporus N75 (Experiment 2-3); contains SEQ ID NO: 2 (protein)
chain: HVSALGNLLSSAVTGDTLTLTIDNGAEPNDDILVLQAVQNGILKVDYRPNGVAPSADTPMLDPNKTWPSIGAVINTASNPMTITTPAMKIEIAKNPVRLTVKKPDGTALLWEPPTGGVFSDGVRFLHGTGDNMYGIRSFNAFDSGGDLLRNSSTQAARAGDQGNSGGPLIWSTAGYGVLVDSDGGYPFTDEATGKLEFYYGGTPPEGRRYTKQDVEYYIMLGTPKEIMSGVGEITGKPPMLPKWSLGFMNFEWDLNEAELKNHVDTYRAKNIPIDGYAIDFDWKKYGENNYGEFAWNTANFPSAATTALKSQMDAKGIKMIGITKPRIATKDFSNNPTVQGTDAASGGYFYPGHSEYKDYFIPVFVRSIDPYNPAARSWFWNHSKDAFDKGIVGWWNDETDAVSSGGASYWFGNFTTGHMSQALYEGQRAYTSNAQRVWQTARTFYPGAQRYATTLWSGDIGIQYTKGERINWAAGMQEQRAVMLSSINNGQVKWGMDTGGFNQQDGTTNNPNPDLYARWMQFSALTPVFRVHGNNHQQRQPWYYGSTAEEASKEALQLRYSLIPYMYAYERSAYENGNGLVRPLMQEYPADANAKNYLDAWMFGDWLLAAPVVEKQQTSKEIYLPAGTWIDYNRGTVLTGGQKISYAVNPDTLTDIPLFIKKGAIIPSQKVQDYVGQAPVQTVDVDVFPNTAQSSFTYYDDDGSSYNYESGAYFKQLMTAQDNGSGALSFTLGAKTGTYSPALQSYIVKLHGAAGASVTSNGAALASYASLQALKASASEGWAKGKDIYGDVTYVKLSAGAAAAKAIAVTGNSPVSVADVQYEAEEASLSGNTTATKATVNTNHAGYTGSGFVDGLSNPGAAVTFYPKVKTGGDYNVSLRYANSTGAAKSVSIFVNGKRVKSTSLANLPNWDTWGTQAETLPLTAGTNVVTYKFYSDAGDTGSVNLDNITVPFAPAIGKYEAESAELSGGSTVNQNHWFYSGTAFVDGLTAPGAQVKYTVNAPAAGSYQIALRYANGTGAAKTLSTYVNGTKLGQTAFASPGGNWNVWQDSVQTVALAAGTNTIAFKYDAGDSGSGSVNLDRLLLSAAAPGVPVSEQNLLDNGGFERDPSQSSNWTEWHPASQAIAYGIDSGSGMNPPESPWAGDKRAYFYAAGPYQQSIHQTVSVPVNNAKYKFEAWVLLKNTTPTTARVEIQNYGGSPIFTNISKDGVWKYISVSDIQVTNGQIDIGFYVDSPGGTTLHIDDVRVTKQ
modifications: Bacillus globisporus N75
[1]; reaction time 0 hour
  Percentage of forming reducing power: 0.0%
[1]; reaction time 1 hour
  Percentage of forming reducing power: 0.1%
[1]; reaction time 2 hours
  Percentage of forming reducing power: 0.0%
[1]; reaction time 4 hours
  Percentage of forming reducing power: 0.0%
[1]; reaction time 8 hours
  Percentage of forming reducing power: 0.1%
[2]
  Isoelectric point: about 7.3±0.5
[3]; in the absence of Ca2+
  Optimum temperature: about 50 °C
[3]; in the presence of 1 mM Ca2+
  Optimum temperature: about 55 °C
[3]
  Optimum pH: about 6.0
[4]; in the presence of 1 mM Ca2+
  Thermal stability: ≤ 50 °C
